# B1: DNA-22 (dsDNA)
# DNA 1: GTTGTACATTCCGTTACTCCCT
# DNA 2: AGGGAGTAACGGAATGTACAAC
# B2: full-length Klebsiella pneumoniae RstA (natural protein)
# chain: GSAMAMNKIVFVEDDPEVGTLIAAYLGKHDMDVVVEPRGDRAEEVIAREKPDLVLLDIMLPGKDGMTLCRDLRGQWQGPIVLLTSLDSDMNHILSLEMGASDYILKTTPPAVLLARLRLHLRQHIAPAGAGSASSTLTPHKTISFGSLTIDPVNRQVLLGGENVALSTADFDLLWELATHAGQIMDRDALLKNLRGVTYDGMDRSVDVAISRLRKKLLDNATEPYRIKTVRNKGYLFAPHAWDN
# notes: RstA response regulator of Klebsiella pneumoniae, full length (RD residues 1-119, DBD residues 131-236); Cloned in a modified pET32a(+) lacking the enterokinase site; also called kpRstA; full-length kpRstA; source: E. coli BL21(DE3), purified (Ni-NTA, Superdex-75 SEC, thrombin digestion); not shown: His-tag, N-terminal, cleaved
# B3: DNA-16a (dsDNA)
# DNA 1: ACGTTGTACATTCCGT
# DNA 2: ACGGAATGTACAACGT
# Experiments:
# [1] = target: Klebsiella pneumoniae RstA N-terminal receiver domain (Klebsiella pneumoniae) (UniProt A6T8N1); test: NMR line-widths; inactive kpRstA RD (without BeF3-) at high concentrations; data not shown
# kpRstA DBD [2] = target: T1, kpRstA DBD (Klebsiella pneumoniae, UniProt A6T8N1 130-236); test: ITC; sequential model, KD1 (first site); ITC 25 C: 20 mM Tris pH 7.5, 100 mM NaCl (DBD); plus 7 mM MgCl2 with or without 5.3 mM BeSO4 and 35 mM NaF (full-length). NMR of complex: 20 mM Na phosphate pH; settings: protein: recombinant; tags: N-terminal M-6H-AMG; chain copies: 2
# T1 sequence: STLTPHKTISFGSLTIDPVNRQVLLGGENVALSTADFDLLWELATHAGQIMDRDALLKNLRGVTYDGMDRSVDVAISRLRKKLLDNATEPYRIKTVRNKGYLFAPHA
# kpRstA full-length = target: T2, kpRstA full-length (Klebsiella pneumoniae, UniProt A6T8N1 1-239); test: ITC; without BeF3-, 7 mM MgCl2; sequential model, KD1; ITC 25 C: 20 mM Tris pH 7.5, 100 mM NaCl (DBD); plus 7 mM MgCl2 with or without 5.3 mM BeSO4 and 35 mM NaF (full-length). NMR of complex: 20 mM Na phosphate pH; settings: protein: recombinant; tags: His-tag removed by thrombin; N-terminal GSAMA remains; chain copies: 2
# T2 sequence: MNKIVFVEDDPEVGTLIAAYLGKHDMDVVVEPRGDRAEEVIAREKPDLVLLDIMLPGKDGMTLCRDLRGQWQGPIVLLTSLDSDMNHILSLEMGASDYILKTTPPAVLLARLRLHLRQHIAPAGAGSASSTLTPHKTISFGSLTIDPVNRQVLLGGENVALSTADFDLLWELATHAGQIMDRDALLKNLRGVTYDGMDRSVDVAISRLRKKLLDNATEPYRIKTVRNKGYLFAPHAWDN
# [3] = target: the molecule itself; test: SEC; full-length kpRstA in the presence of BeF3-; data not shown
# kpRstA DBD [4] = target: T1, kpRstA DBD; test: ITC; one-site model, N = 1.05 (text gives error 0.54); ITC 25 C: 20 mM Tris pH 7.5, 100 mM NaCl (DBD); plus 7 mM MgCl2 with or without 5.3 mM BeSO4 and 35 mM NaF (full-length). NMR of complex: 20 mM Na phosphate pH; settings: protein: recombinant; tags: N-terminal M-6H-AMG; chain copies: 2
# kpRstA DBD R207A = kpRstA DBD R207A (Klebsiella pneumoniae, UniProt A6T8N1 130-236, R207A); test: ITC; binding completely abolished; DNA-16a per Figure 1E legend (Table 1 says DNA-22); ITC 25 C: 20 mM Tris pH 7.5, 100 mM NaCl (DBD); plus 7 mM MgCl2 with or without 5.3 mM BeSO4 and 35 mM NaF (full-length). NMR of complex: 20 mM Na phosphate pH; settings: protein: recombinant; tags: N-terminal M-6H-AMG; chain copies: 2
molecule,measurement,setting,value
Klebsiella pneumoniae RstA N-terminal receiver domain (from UniProt A6T8N1 1-119) (domain or fragment),stoichiometry N,[1],2
B1,Kd,kpRstA DBD [2],10.3 ± 1.14 µM
same,Kd,kpRstA full-length,45.5 ± 8.41 µM
B2,stoichiometry N,[3],2
B3,Kd,kpRstA DBD [4],8.17 ± 0.53 µM
same,binding result,kpRstA DBD R207A,no binding

# — article PMC4117788, “Structural dynamics of the two-component response regulator RstA in recognition of promoter DNA element” (Nucleic Acids Research, 2014)
